Patent publication US20170275344A1, “POLYPEPTIDES AND USES THEREOF AS A DRUG FOR TREATMENT OF AUTOIMMUNE DISORDERS” (Compugen Ltd., priority 2014, published 2017)

Tests used:
[1] = test system: total splenocytes and lymph node cells; assay: Ex vivo recall responses in adoptive transfer R-EAE; format: cell-based, mouse
Experimental: On day 45 (unless otherwise indicated) following cell transfer, spleen and cervical lymph nodes or CNS from 3 representative mice of each group were collected, and the total cells were activated ex vivo at 0.5×10^6 cells per well with either OVA323-339, PLP139-151, PLP178-191, MBP84-104 (20 ug/ml), or anti-CD3 (1 ug/ml). Two sets of cultures were set up side-by-side. One set was pulsed with 1 uCi of tritiated thymidine at 24 hours and harvested at 72 hours to determine cell proliferation. In the second set of cultures, supernatants were collected at 72 hours and tested for peptide-specific cytokine production as determined by LiquiChip.

SJL mice = assay: PLP139-151/CFA R-EAE with Treg inactivation by anti-CD25; format: in vivo, mouse
Experimental: In two studies, EAE was induced in SJL mice via PLP139-151/CFA priming as described under Methods, below. The mice were divided into 4 and 8 groups in Study I and Study II, respectively groups (n=10/treatment group). In both studies, groups 1-4 the mice received two injections separated by one day, of either Control Ab or anti-CD25 (clone 7D4 at 500 μg/injection i.p. (BioXCell Cat# BE0013; West Lebanon, N.H.)) starting at the onset of disease remission (Day +19 and 21 in Study I or Day +20 and 22 in Study II), followed by treatment with either mIgG2a Control Ig or C1ORF32 ECD-Fc (100 ug/dose; 3×/wk; 2 wks) beginning on the day of the second treatment with anti CD25 (Day 21 in study I and day 22 in study II).
To study the importance of Treg function for maintenance of tolerance by C1ORF32 ECD-Fc a second set of mice was set in study II, groups 5-8, in which mice were treated with Control Ig or C1ORF32 ECD-Fc (SEQ ID NO:42) first in a similar regimen as groups 1-4 (beginning on Day +22), and then two weeks following the last C1ORF32 ECD-Fc (SEQ ID NO:42) treatment, on days 46 and 48, mice received either Control Ab or anti-CD25 (500 μg/injection) to inactivate the Treg cells. The mice were followed for the level of disease severity.
Study I Treatment Groups (n=10 Mice Per Group) 1. Control Ab (Day +19 and 21) plus Control Ig (100 ug/dose; 3×/wk; 2 wks; beginning on Day +21) 2. Anti-CD25 Ab (Day +19 and 21) plus Control Ig (100 ug/dose; 3×/wk; 2 wks; beginning on Day +21) 3. Control Ab (Day +19 and 21) plus C1ORF ECD-Fc (SEQ ID NO:42) (100 ug/dose; 3×/wk; 2 wks; beginning on Day +21) 4. Anti-CD25 Ab (Day +19 and 21) plus C1ORF ECD-Fc (SEQ ID NO:42) (100 ug/dose; 3×/wk; 2 wks; beginning on Day +21) Study II Treatment Groups (n=10 Mice Per Group) 1. Control Ab (Day +20 and 22) plus Control Ig (100 ug/dose; 3×/wk; 2 wks; beginning on Day +22) 2. Anti-CD25 Ab (Day +20 and 22) plus Control Ig (100 ug/dose; 3×/wk; 2 wks; beginning on Day +22) 3. Control Ab (Day +20 and 22) plus C1ORF32 ECD-Fc (SEQ ID NO:42) (100 ug/dose; 3×/wk; 2 wks; beginning on Day +22) 4. Anti-CD25 Ab (Day +20 and 22) plus C1ORF32 ECD-Fc (SEQ ID NO:42) (100 ug/dose; 3×/wk; 2 wks; beginning on Day +22) 5. Control Ig (100 ug/dose; 3×/wk; 2 wks; beginning on Day +22) plus Control Ab (Day +46 and 48) 6. […]
SJL mice were primed with 50 μg PLP139-151/CFA to induce R-EAE, and followed for disease through the acute phase of disease and into disease remission. […] Clinical results are expressed as the mean clinical score.
Mice were followed for disease and scored on a 0-5 scale per standard lab protocol as follows: 0, no abnormality; 1, limp tail; 2, limp tail and hind limb weakness; 3, hind limb paralysis; 4, hind limb paralysis and forelimb weakness; and 5, moribund.

B1: C1ORF32 ECD-Fc (SEQ ID NO:42): fusion protein of human C1ORF32 ECD fused to mouse immunoglobulin Fc (human-mouse fusion protein) (protein)
chain: LQVTVPDKKKVAMLFQPTVLRCHFSTSSHQPAVVQWKFKSYCQDRMGESLGMSSTRAQSLSKRNLEWDPYLDCLDSRRTVRVVASKQGSTVTLGDFYRGREITIVHDADLQIGKLMWGDSGLYYCIITTPDDLEGKNEDSVELLVLGRTGLLADLLPSFAVEIMGSENLYFQGSGEPRGPTIKPCPPCKCPAPNLLGGPSVFIFPPKIKDVLMISLSPIVTCVVVDVSEDDPDVQISWFVNNVEVHTAQTQTHREDYNSTLRVVSALPIQHQDWMSGKEFKCKVNNKDLPAPIERTISKPKGSVRAPQVYVLPPPEEEMTKKQVTLTCMVTDFMPEDIYVEWTNNGKTELNYKNTEPVLDSDGSYFMYSKLRVEKKNWVERNSYSCSVVHEGLHNHHTTKSFSRTPGK
modifications: Fusion protein human C1ORF32-ECD fused to mouse IgG2a Fc
- recall responses of CNS cells to PLP139-151 and anti CD3 ([1]; day 10, treatment from time of cell transfer): abolished
- GM-CSF secretion ([1]; day 45, activation with PLP139-151 and PLP178-191): inhibition of GM-CSF secretion
- IFN-gamma and IL-17 secretion ([1]; day 45, activation with anti-CD3, PLP139-151, and PLP178-191): inhibition
- splenocyte secretion of IL-4 and IL-10 ([1]; day 45, in response to PLP139-151): increased splenocyte secretion
- recall responses: cellular proliferation of splenocytes and lymph node cells ([1]; day 45, treatment from onset of remission): decreased level of cellular proliferation
- relapsing EAE disease (SJL mice; Study I, Control Ab, 100 ug/dose 3x/wk 2 wks from Day +21): abrogated
- disease severity (SJL mice; Study I, treatment starting after anti-CD25 (Day +19 and 21), vs anti CD25 + control Ig): significant decrease in disease severity
- disease symptoms (SJL mice; Study II, anti-CD25 on days 20 and 22, before treatment from day 22): completely inhibited diseases symptoms
- disease course after late Treg inactivation (SJL mice; Study II, anti-CD25 on days 46 and 48, 2 weeks after completion of treatment): immediate relapse which was alleviated as the effect of anti-CD25 dropped off
